Positions count from the first letter of the chain named. Numbers in names are those of the source.
B1: GLS3000 S52A one-arm antibody (antibody, human IgG1, kappa, L234A L235A, N297A, name in Kabat numbering)
heavy: QVQLVESGGGVVQPGRSLRLSCAASGFTFSNAWMHWVRQAPGKGLEWVAQIKAKSNNYATYYAESVKGRFTISRDDSKNSLYLQMNSLKTEDTAVYYCRYVHYGAYYGVDAWGQGTTVTVSSASTKGPSVFPLAPSSKSTSGGTAALGCLVKDYFPEPVTVSWNSGALTSGVHTFPAVLQSSGLYSLSSVVTVPSSSLGTQTYICNVNHKPSNTKVDKKVEPKSCDKTHTCPPCPAPEAAGGPSVFLFPPKPKDTLMISRTPEVTCVVVDVSHEDPEVKFNWYVDGVEVHNAKTKPREEQYASTYRVVSVLTVLHQDWLNGKEYKCKVSNKALPAPIEKTISKAKGQPREPQVYTLPPSRCELTKNQVSLSCAVKGFYPSDIAVEWESNGQPENNYKTTPPVLDSDGSFFLVSKLTVDKSRWQQGNVFSCSVMHEALHNHYTQKSLSLSPDYKDDDDK
chain: EPKSSDKTHTCPPCPAPELLGGPSVFLFPPKPKDTLMISRTPEVTCVVVDVSHEDPEVKFNWYVDGVEVHNAKTKPREEQYNSTYRVVSVLTVLHQDWLNGKEYKCKVSNKALPAPIEKTISKAKGQPREPQVCTLPPSRDELTKNQVSLWCLVKGFYPSDIAVEWESNGQPENNYKTTPPVLDSDGSFFLYSKLTVDKSRWQQGNVFSCSVMHEALHNRYTQKSLSLSP
light: DIVMTQSPLSLPVTPGEPASISCRSSQSLVHSNRNTYLHWYQQKPGQAPRLLIYKVANRFSGVPDRFSGSGSGTDFTLKISRVEAEDVGVYYCGQGTQVPYTFGQGTKLEIKRTVAAPSVFIFPPSDEQLKSGTASVVCLLNNFYPREAKVQWKVDNALQSGNSQESVTEQDSKDSTYSLSSTLTLSKADYEKHKVYACEVTHQGLSSPVTKSFNRGEC
B2: GLS3000 S52D one-arm antibody (antibody, human IgG1, kappa, L234A L235A, N297A, name in Kabat numbering)
heavy: B1 heavy
chain: B1 chain
light: B1 light with A57D
B3: GLS3000 S52P one-arm antibody (antibody, human IgG1, kappa, L234A L235A, N297A, name in Kabat numbering)
heavy: B1 heavy
chain: B1 chain
light: B1 light with A57P
B4: GLS3000 S52Q one-arm antibody (antibody, human IgG1, kappa, L234A L235A, N297A, name in Kabat numbering)
heavy: B1 heavy
chain: B1 chain
light: B1 light with A57Q
B5: GLS3000 S52Y one-arm antibody (antibody, human IgG1, kappa, L234A L235A, N297A, name in Kabat numbering)
heavy: B1 heavy
chain: B1 chain
light: B1 light with A57Y
B6: GLS3000 S56A one-arm antibody (antibody, human IgG1, kappa, L234A L235A, N297A, name in Kabat numbering)
heavy: B1 heavy
chain: B1 chain
light: B1 light with A57S, S61A
B7: GLS3000 S56D one-arm antibody (antibody, human IgG1, kappa, L234A L235A, N297A, name in Kabat numbering)
heavy: B1 heavy
chain: B1 chain
light: B1 light with A57S, S61D
B8: GLS3000 S56E one-arm antibody (antibody, human IgG1, kappa, L234A L235A, N297A, name in Kabat numbering)
heavy: B1 heavy
chain: B1 chain
light: B1 light with A57S, S61E
B9: GLS3000 S56F one-arm antibody (antibody, human IgG1, kappa, L234A L235A, N297A, name in Kabat numbering)
heavy: B1 heavy
chain: B1 chain
light: B1 light with A57S, S61F
B10: GLS3000 S56G one-arm antibody (antibody, human IgG1, kappa, L234A L235A, N297A, name in Kabat numbering)
heavy: B1 heavy
chain: B1 chain
light: B1 light with A57S, S61G
B11: GLS3000 S56H one-arm antibody (antibody, human IgG1, kappa, L234A L235A, N297A, name in Kabat numbering)
heavy: B1 heavy
chain: B1 chain
light: B1 light with A57S, S61H
B12: GLS3000 S56I one-arm antibody (antibody, human IgG1, kappa, L234A L235A, N297A, name in Kabat numbering)
heavy: B1 heavy
chain: B1 chain
light: B1 light with A57S, S61I
B13: GLS3000 S56K one-arm antibody (antibody, human IgG1, kappa, L234A L235A, N297A, name in Kabat numbering)
heavy: B1 heavy
chain: B1 chain
light: B1 light with A57S, S61K
B14: GLS3000 S56L one-arm antibody (antibody, human IgG1, kappa, L234A L235A, N297A, name in Kabat numbering)
heavy: B1 heavy
chain: B1 chain
light: B1 light with A57S, S61L
B15: GLS3000 S56M one-arm antibody (antibody, human IgG1, kappa, L234A L235A, N297A, name in Kabat numbering)
heavy: B1 heavy
chain: B1 chain
light: B1 light with A57S, S61M
B16: GLS3000 S56N one-arm antibody (antibody, human IgG1, kappa, L234A L235A, N297A, name in Kabat numbering)
heavy: B1 heavy
chain: B1 chain
light: B1 light with A57S, S61N
B17: GLS3000 S56P one-arm antibody (antibody, human IgG1, kappa, L234A L235A, N297A, name in Kabat numbering)
heavy: B1 heavy
chain: B1 chain
light: B1 light with A57S, S61P
B18: GLS3000 S56Q one-arm antibody (antibody, human IgG1, kappa, L234A L235A, N297A, name in Kabat numbering)
heavy: B1 heavy
chain: B1 chain
light: B1 light with A57S, S61Q
B19: GLS3000 S56R one-arm antibody (antibody, human IgG1, kappa, L234A L235A, N297A, name in Kabat numbering)
heavy: B1 heavy
chain: B1 chain
light: B1 light with A57S, S61R
B20: GLS3000 S56T one-arm antibody (antibody, human IgG1, kappa, L234A L235A, N297A, name in Kabat numbering)
heavy: B1 heavy
chain: B1 chain
light: B1 light with A57S, S61T
B21: GLS3000 S56V one-arm antibody (antibody, human IgG1, kappa, L234A L235A, N297A, name in Kabat numbering)
heavy: B1 heavy
chain: B1 chain
light: B1 light with A57S, S61V
B22: GLS3000 S56W one-arm antibody (antibody, human IgG1, kappa, L234A L235A, N297A, name in Kabat numbering)
heavy: B1 heavy
chain: B1 chain
light: B1 light with A57S, S61W
B23: GLS3000 S56Y one-arm antibody (antibody, human IgG1, kappa, L234A L235A, N297A, name in Kabat numbering)
heavy: B1 heavy
chain: B1 chain
light: B1 light with A57S, S61Y
B24: GLS3000 T31D one-arm antibody (antibody, human IgG1, kappa, L234A L235A, N297A, name in Kabat numbering)
heavy: B1 heavy
chain: B1 chain
light: B1 light with T36D, A57S
B25: GLS3000 T31E one-arm antibody (antibody, human IgG1, kappa, L234A L235A, N297A, name in Kabat numbering)
heavy: B1 heavy
chain: B1 chain
light: B1 light with T36E, A57S
B26: GLS3000 T31I one-arm antibody (antibody, human IgG1, kappa, L234A L235A, N297A, name in Kabat numbering)
heavy: B1 heavy
chain: B1 chain
light: B1 light with T36I, A57S
B27: GLS3000 T31K one-arm antibody (antibody, human IgG1, kappa, L234A L235A, N297A, name in Kabat numbering)
heavy: B1 heavy
chain: B1 chain
light: B1 light with T36K, A57S
B28: GLS3000 T31N one-arm antibody (antibody, human IgG1, kappa, L234A L235A, N297A, name in Kabat numbering)
heavy: B1 heavy
chain: B1 chain
light: B1 light with T36N, A57S
B29: GLS3000 T31P one-arm antibody (antibody, human IgG1, kappa, L234A L235A, N297A, name in Kabat numbering)
heavy: B1 heavy
chain: B1 chain
light: B1 light with T36P, A57S
B30: GLS3000 T92A one-arm antibody (antibody, human IgG1, kappa, L234A L235A, N297A, name in Kabat numbering)
heavy: B1 heavy
chain: B1 chain
light: B1 light with A57S, T97A
B31: GLS3000 T92D one-arm antibody (antibody, human IgG1, kappa, L234A L235A, N297A, name in Kabat numbering)
heavy: B1 heavy
chain: B1 chain
light: B1 light with A57S, T97D
B32: GLS3000 T92E one-arm antibody (antibody, human IgG1, kappa, L234A L235A, N297A, name in Kabat numbering)
heavy: B1 heavy
chain: B1 chain
light: B1 light with A57S, T97E
B33: GLS3000 T92I one-arm antibody (antibody, human IgG1, kappa, L234A L235A, N297A, name in Kabat numbering)
heavy: B1 heavy
chain: B1 chain
light: B1 light with A57S, T97I
B34: GLS3000 T92L one-arm antibody (antibody, human IgG1, kappa, L234A L235A, N297A, name in Kabat numbering)
heavy: B1 heavy
chain: B1 chain
light: B1 light with A57S, T97L

Biological target: T1, CD3ε homodimer protein (human, UniProt P07766 23-126, limits assumed)
T1 construct: also called CD3 (CD3ε)
Test: SPR Biacore T200, CD3ε homodimer on chip;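 further: Light-chain single-residue variant antibodies injected over amine-coupled CD3ε homodimer on a CM4 chip at 25 °C, bound amount divided by that of the GLS3000-containing antibody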

T1 sequence (P07766 23-126 limits assumed): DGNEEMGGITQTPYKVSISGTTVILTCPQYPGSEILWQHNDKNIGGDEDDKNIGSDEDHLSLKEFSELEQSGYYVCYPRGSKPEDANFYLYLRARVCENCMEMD

Row | Binder | ratio of amount bound vs unaltered GLS3000
1 | B1 | 0.93
2 | B2 | 0.63
3 | B3 | 0.33
4 | B4 | 1.05
5 | B5 | 1.12
6 | B6 | 1.16
7 | B7 | 0.77
8 | B8 | 0.71
9 | B9 | 1.32
10 | B10 | 0.92
11 | B11 | 1.05
12 | B12 | 0.99
13 | B13 | 1.46
14 | B14 | 1.02
15 | B15 | 1.05
16 | B16 | 0.92
17 | B17 | 0.95

Row | Binder | ratio of amount bound vs unaltered GLS3000
18 | B18 | 1.04
19 | B19 | 1.36
20 | B20 | 0.97
21 | B21 | 0.95
22 | B22 | 1.38
23 | B23 | 1.46
24 | B24 | 0.23
25 | B25 | 0.49
26 | B26 | 0.97
27 | B27 | 1.04
28 | B28 | 0.32
29 | B29 | 0.31
30 | B30 | 0.63
31 | B31 | 0.18
32 | B32 | 0.17
33 | B33 | 0.34
34 | B34 | 0.42

From patent US20260049138A1 (Chugai, published 2026)
